Results as given in US20230030032A1 (AGGAMIN, published 2023).

T1: soluble Endoglin (sEng), recombinant, as spiked or purified protein (human, UniProt P17813 26-586, limits assumed)
T1 construct: sEng applied to columns (80 or 60 ng/ml), used in SEC and coated in ELISA; construct not specified there; also called spiked sEng
T1 sequence (looked up): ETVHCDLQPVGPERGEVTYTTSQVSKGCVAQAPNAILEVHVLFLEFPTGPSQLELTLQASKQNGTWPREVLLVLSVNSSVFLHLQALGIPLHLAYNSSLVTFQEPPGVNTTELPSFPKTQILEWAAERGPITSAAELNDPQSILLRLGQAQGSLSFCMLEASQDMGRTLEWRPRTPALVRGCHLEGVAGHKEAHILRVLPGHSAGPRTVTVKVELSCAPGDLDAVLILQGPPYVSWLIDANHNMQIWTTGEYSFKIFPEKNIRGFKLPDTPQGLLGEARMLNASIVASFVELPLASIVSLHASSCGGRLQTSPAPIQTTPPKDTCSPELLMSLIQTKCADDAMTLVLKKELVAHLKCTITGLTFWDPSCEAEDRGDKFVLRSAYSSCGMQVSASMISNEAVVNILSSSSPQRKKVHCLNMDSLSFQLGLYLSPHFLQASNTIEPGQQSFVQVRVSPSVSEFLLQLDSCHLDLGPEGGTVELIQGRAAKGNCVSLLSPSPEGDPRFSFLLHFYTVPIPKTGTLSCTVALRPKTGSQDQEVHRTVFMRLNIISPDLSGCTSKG

T2: purified human Bmp9 (human, UniProt Q9UK05 320-429, limits assumed)
T2 construct: also called Bone Morphogenetic Protein 9
T2 sequence (looked up): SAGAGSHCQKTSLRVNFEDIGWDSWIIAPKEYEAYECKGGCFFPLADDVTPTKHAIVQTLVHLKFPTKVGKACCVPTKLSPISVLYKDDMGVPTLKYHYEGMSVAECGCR

T3: recombinant human (rh) Endoglin ectodomain (residues 1-586) containing C-terminal 6xHis tag (human, UniProt P17813 26-586)
T3 construct: range 1-586; Purified from HEK-293 cells; the stated range 1-586 includes the signal peptide; also called purified sEng antigen; sEng
T3 sequence: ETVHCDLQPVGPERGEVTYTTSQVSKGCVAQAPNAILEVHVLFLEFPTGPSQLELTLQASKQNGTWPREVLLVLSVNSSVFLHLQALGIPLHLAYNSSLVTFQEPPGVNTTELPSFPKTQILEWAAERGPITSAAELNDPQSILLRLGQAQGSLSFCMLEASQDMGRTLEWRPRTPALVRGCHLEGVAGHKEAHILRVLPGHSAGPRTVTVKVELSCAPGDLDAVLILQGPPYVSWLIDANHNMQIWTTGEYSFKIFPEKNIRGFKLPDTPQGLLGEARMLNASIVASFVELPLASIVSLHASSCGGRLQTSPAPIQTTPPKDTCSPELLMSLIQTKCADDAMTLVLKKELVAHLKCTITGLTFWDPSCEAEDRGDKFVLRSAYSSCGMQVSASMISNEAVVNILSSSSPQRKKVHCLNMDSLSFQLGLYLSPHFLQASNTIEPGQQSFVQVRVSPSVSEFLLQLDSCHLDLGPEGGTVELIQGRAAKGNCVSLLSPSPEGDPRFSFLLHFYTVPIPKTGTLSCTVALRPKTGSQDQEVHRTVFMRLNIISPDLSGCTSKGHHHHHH

T4: recombinant human (rh) Endoglin ectodomain (residues 1-586) fused with human IgG1 Fc (human, UniProt P17813 26-586)
T4 construct: range 1-586; The stated range 1-586 includes the signal peptide, which would be absent from the secreted protein; also called sEng-Fc; sEng/Fc fusion protein; not shown: human IgG1 Fc
T4 sequence (looked up): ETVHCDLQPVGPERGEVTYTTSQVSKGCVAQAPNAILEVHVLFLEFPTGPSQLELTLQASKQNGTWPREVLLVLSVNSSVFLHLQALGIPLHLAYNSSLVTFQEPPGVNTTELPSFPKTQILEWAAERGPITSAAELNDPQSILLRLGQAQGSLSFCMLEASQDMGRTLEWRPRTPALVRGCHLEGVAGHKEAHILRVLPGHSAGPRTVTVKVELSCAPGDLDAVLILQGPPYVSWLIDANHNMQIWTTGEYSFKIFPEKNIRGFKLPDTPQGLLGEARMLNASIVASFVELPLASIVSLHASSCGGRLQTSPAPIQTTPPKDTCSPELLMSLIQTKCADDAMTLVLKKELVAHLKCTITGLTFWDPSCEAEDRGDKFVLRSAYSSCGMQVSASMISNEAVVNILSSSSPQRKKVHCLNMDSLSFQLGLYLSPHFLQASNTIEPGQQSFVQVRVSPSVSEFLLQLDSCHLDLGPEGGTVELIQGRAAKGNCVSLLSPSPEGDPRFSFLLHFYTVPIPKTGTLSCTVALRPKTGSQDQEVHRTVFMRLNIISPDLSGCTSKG


How the values were obtained:
[1] = target: T1, soluble Endoglin (sEng), recombinant, …; test: sandwich ELISA: cENG10 coated at 4 ug/mL, serial dilutions of preformed equimolar Bmp9/sEng complex, bound Bmp9 detected with biotinylated anti-Bmp9 antibody and an HRP conjugate
Method: (§1) For the ELISA experiment shown, cENG10 antibody was coated onto microplates and incubated with the analyte (a preformed Bmp9/sEng complex, Bmp9 alone, or sEng alone). Bound Bmp9 was detected using a biotinylated anti-Bmp9 antibody and a secondary, HRP-conjugated antibody, allowing for colorimetric detection of cENG10 binding to the Bmp9/sEng complex.
(§2) To test whether or not antibody cENG10 blocks binding of sEng and its ligands was assessed using a sandwich ELISA. To that end, purified human Bmp9 and sEng were mixed at equimolar ratio in PBS (final total concentration 1 μM), incubated for 30 min and serially diluted (in 1% BSA) to 0.02 to 20 nM. Control solutions containing only Bmp9 or sEng were also prepared. Antibody cENG10 (4 μg/mL) was coated onto microplate wells. After a washing step, the wells were blocked with 1% BSA. Serial dilutions of either the preformed Bmp9-sEng complex, sEng alone, or Bmp9 alone were added and the plates incubated for 90 min. After another wash step, bound Bmp9 was detected using a biotinylated anti-Bmp9 antibody and a secondary, HRP-conjugated antibody, allowing for colorimetric detection of cENG10 binding to the Bmp9/sEng complex.

[2] = target: T2, purified human Bmp9; test: sandwich ELISA: cENG10 coated at 4 ug/mL, serial dilutions of Bmp9 alone, bound Bmp9 detected with biotinylated anti-Bmp9 antibody and an HRP conjugate
Method: as §1, §2

[3] = target: T5, endogenous sFlt-1 in pooled serum of pre-eclampsia patients (human, UniProt P17948-2 27-687, limits assumed); test: 0.1 ml column, 1 mg antibody/ml beads, pooled serum of pre-eclampsia patients
T5 construct: also called sVEGFR1; soluble Flt-1 receptor

[4] = target: T3, recombinant human (rh) Endoglin …; test: BLI (Octet QK), purified MAb on Protein-G biosensor, sEng 1-586 6xHis 50 nM in solution
Method: Materials: Kinetics buffer—PBS solution containing 0.1% BSA and 0.05% Tween-20. Anti-sEng antibodies were purified from ascites of mice injected with hybridoma cells by Protein-G chromatography and buffer exchanged into PBS. For each run, 22 ug/ml (or 150 nM) of each antibody was loaded onto the Protein-G biosensor tip. Purified sEng antigen recombinant human (rh) Endoglin ectodomain (residues 1-586) containing C-terminal 6×His tag was purified from HEK-293 cells by metal affinity chromatography followed by size-exclusion chromatography pre-equilibrated in PBS. For each run, 3 ug/ml (or 50 nM) of sEng was used for association to MAbs bound to Protein-G biosensor tips. Protein-G Biosensor tips were purchased from the instrument supplier.

[5] = target: T4, recombinant human (rh) Endoglin …; test: BLI (Octet QK), MAb from hybridoma supernatant captured on anti-mouse IgG biosensor, sEng-Fc 170 nM in solution
Method: Materials: Kinetics buffer—PBS solution containing 0.1% BSA and 0.05% Tween-20 was used as the kinetics buffer. Test samples—culture supernatants from top 21 hybridoma clones with the strongest signals for binding to the sEng-Fc antigen as determined by ELISA. sEng antigen—recombinant human (rh) Endoglin ectodomain (residues 1-586) fused with human IgG1 Fc, diluted to 170 nM (30 ug/ml) with kinetics buffer. Biosensors—streptavidin biosensors, preloaded with biotinylated sheep anti-mouse IgG.
Binding affinities were determined using the ForteBio label-free Octet QK BLI system using the following protocol: [0237] i. Condition: Immerse biosensor tips in 200 uL of kinetics buffer for >10 min. [0238] ii. Baseline 1: Immerse biosensors in fresh culture medium for 1 min. [0239] iii. Load: Immerse biosensors in culture supernatant samples containing MAbs for 3 min. [0240] iv. Baseline: Immerse biosensors in kinetics buffer for 1 min. [0241] v. Binding/Association: Incubate biosensors with sEng-Fc Antigen for 5 min. [0242] vi. Dissociation: Incubate biosensors in kinetics buffer for 5 min.
Response signals (nm shifts) were used to calculate Kd values for the different antibodies.

T5 sequence (P17948 other isoform, or with tags, fused parts or gaps limits assumed): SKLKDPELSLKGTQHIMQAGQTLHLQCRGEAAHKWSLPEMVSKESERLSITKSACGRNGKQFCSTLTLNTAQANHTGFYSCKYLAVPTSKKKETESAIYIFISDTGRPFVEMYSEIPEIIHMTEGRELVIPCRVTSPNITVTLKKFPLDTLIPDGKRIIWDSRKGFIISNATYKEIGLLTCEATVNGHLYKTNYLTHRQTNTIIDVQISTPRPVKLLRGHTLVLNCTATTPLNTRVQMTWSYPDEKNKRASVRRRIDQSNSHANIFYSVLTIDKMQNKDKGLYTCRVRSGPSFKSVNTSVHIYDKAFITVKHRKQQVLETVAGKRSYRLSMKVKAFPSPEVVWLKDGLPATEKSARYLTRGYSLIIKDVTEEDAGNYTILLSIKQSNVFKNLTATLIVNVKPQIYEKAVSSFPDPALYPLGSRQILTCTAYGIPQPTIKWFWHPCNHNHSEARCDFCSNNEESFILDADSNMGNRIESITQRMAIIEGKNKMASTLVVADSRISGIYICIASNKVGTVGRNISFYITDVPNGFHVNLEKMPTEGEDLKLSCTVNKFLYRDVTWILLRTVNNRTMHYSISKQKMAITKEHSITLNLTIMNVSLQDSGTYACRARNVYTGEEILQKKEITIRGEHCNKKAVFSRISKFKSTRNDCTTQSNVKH

| EC50 (read off the curve) [1] | binding result [2] | binding result [3] | Kd [4] | Kd [5] | Binder |
| --- | --- | --- | --- | --- | --- |
| ~3 nM | no binding (tested: 20 nM) | no binding |  |  | chimeric anti-sEng antibody cENG10 (antibody, human IgG1, kappa, N297Q, V domains shown, Murine MAb 210 variable regions on human IgG1 / kappa constant regions; also called αEng; cENG10 (CHO-derived)) VH: EVQLEQSGPEVVKPGTSVKISCKTSGYTITEHTLHWIKQNQGKSLEWIGGINFDNGGTTYRQKFKDKATLTVDKSSSTAFMELRSLTSDDSAVYFCARRAYYYGSAFDYWGQGTTLTVSS VL: ENVLTQSPAIMSASLGEKVTMTCRASSSVNYVYWYQQKSDASPKLWIYYTSNLAPGVPARFSGSGSGNSYSLTISSMEGEDAATYYCQQFISFPYTFGGGTKLEIKR |
|  |  |  | 2.2 nM | 0.61 nM | MAb 210 (antibody, V domains shown, Murine monoclonal antibody from hybridoma; also called lead antibody) VH: EVQLEQSGPEVVKPGTSVKISCKTSGYTITEHTLHWIKQNQGKSLEWIGGINFDNGGTTYRQKFKDKATLTVDKSSSTAFMELRSLTSDDSAVYFCARRAYYYGSAFDYWGQGTTLTVSS VL: ENVLTQSPAIMSASLGEKVTMTCRASSSVNYVYWYQQKSDASPKLWIYYTSNLAPGVPARFSGSGSGNSYSLTISSMEGEDAATYYCQQFISFPYTFGGGTKLEIK |
